Assay results reported in patent US20260139048A1 (NANJING LEGEND BIOTECH, published 2026).
Values belong to the binder of their own block, whether it stands above or below them.

Key:
His-tagged human TIGIT [1] = molecular target: T1, His-tagged human TIGIT (human, UniProt Q495A1 22-141); assay: SPR experiment 1, IgG from HEK293 supernatant captured
T1 construct: SPR analyte; also called human TIGIT protein; not shown: His tag
T1 sequence: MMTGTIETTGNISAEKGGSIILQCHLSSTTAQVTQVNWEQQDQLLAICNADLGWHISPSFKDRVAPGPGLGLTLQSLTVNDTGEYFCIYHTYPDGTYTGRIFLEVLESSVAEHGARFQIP

His-tagged human TIGIT [2] = molecular target: T1, His-tagged human TIGIT; assay: SPR, IgG from HEK293 supernatant; against 19VH + 19VL
His-tagged human TIGIT [3] = molecular target: T1, His-tagged human TIGIT; assay: SPR experiment 2, IgG from HEK293 supernatant captured
His-tagged human TIGIT [4] = molecular target: T1, His-tagged human TIGIT; assay: SPR experiment 3, IgG from HEK293 supernatant
His-tagged human TIGIT [5] = molecular target: T1, His-tagged human TIGIT; assay: SPR experiment 3, IgG from HEK293 supernatant captured
[6] = molecular target: T2, human TIGIT expressed on CHO-K1 cells (human, UniProt Q495A1 22-244); assay: flow cytometry on CHO-K1 cells expressing human TIGIT
T2 construct: whole, on cells; also called human TIGIT-CHO-K1 cells; human TIGIT over-expressing cell line
T2 sequence (looked up): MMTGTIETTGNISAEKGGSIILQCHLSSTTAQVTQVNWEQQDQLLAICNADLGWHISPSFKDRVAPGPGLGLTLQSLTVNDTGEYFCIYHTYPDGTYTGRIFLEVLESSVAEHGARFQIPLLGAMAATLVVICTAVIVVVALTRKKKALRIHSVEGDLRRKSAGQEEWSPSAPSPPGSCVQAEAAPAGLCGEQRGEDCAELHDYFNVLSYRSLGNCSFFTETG

[7] = molecular target: T2, human TIGIT expressed on CHO-K1 cells; assay: flow cytometry competition: biotinylated CD155-Fc on human TIGIT-CHO-K1 cells
His-tagged human TIGIT [8] = molecular target: T1, His-tagged human TIGIT; assay: SPR (Biacore T200), antibody captured, His-tagged TIGIT analyte
[9] = molecular target: T3, His-tagged cynomolgus TIGIT (cynomolgus, UniProt A0A7N9I9V4 89-209); assay: as above
T3 construct: SPR analyte; also called cynomolgus TIGIT protein; not shown: His tag

His-tagged human TIGIT [10] = molecular target: T1, His-tagged human TIGIT; assay: SPR experiment 2, IgG from HEK293 supernatant captured; remark: listed apart in the source
[11] = molecular target: T4, TIGIT on TIGIT-over expressing NFAT-Luc/Jurkat effector cells (GenScript reporter cell line) (UniProt Q495A1 22-244, limits assumed); assay: cell-based or functional assay
T4 sequence (looked up): T2 sequence (looked up)

[12] = molecular target: T5, cynomolgus TIGIT expressed on CHO-K1 cells (cynomolgus, UniProt A0A7N9I9V4 89-312); assay: flow cytometry on CHO-K1 cells expressing cynomolgus TIGIT
T5 construct: whole, on cells; also called cynomolgus TIGIT over-expressing cell line

[13] = molecular target: T5, cynomolgus TIGIT expressed on CHO-K1 …; assay: flow cytometry on TIGIT over-expressing CHO-K1 cells

T3 sequence (A0A7N9I9V4 entry or part of it): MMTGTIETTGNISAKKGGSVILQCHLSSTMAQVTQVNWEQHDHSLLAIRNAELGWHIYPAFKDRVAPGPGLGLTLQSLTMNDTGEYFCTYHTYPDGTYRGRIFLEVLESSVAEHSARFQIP
T5 sequence (A0A7N9I9V4 entry or part of it): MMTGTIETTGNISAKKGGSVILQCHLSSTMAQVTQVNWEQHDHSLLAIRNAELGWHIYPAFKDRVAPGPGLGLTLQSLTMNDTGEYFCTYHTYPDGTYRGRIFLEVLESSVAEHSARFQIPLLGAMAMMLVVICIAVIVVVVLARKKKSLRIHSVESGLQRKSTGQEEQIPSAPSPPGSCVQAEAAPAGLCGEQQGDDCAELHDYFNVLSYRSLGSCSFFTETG

- Kd (His-tagged human TIGIT [1]): 0.0196 nM
- koff (His-tagged human TIGIT [1]): 2.51e-05 s⁻¹
- kon (His-tagged human TIGIT [1]): 1.28e+06 M⁻¹ s⁻¹
- fold improvement of binding affinity (His-tagged human TIGIT [2]): ~4 fold
- Kd (His-tagged human TIGIT [3]): 0.028 nM
- koff (His-tagged human TIGIT [3]): 3.3e-05 s⁻¹
- kon (His-tagged human TIGIT [3]): 1.2e+06 M⁻¹ s⁻¹
B1: humanized TIGIT-19 antibody 19VH4 + 19VL1 (antibody, V domains shown)
VH: QVQLVQSGAEVKKPGASVKVSCKASGYAFSRYSMYWVRQAPGQGLEWIAFIDPYNGGSTYNQRFRGKATLTVDTSISTAYMELSRLRSDDTAVYYCARGGDYGWYLGVWGQGTLVTVSS
VL: DIQMTQSPSSLSASVGDRVTITCRPSENIYTYLSWYQQKPGKAPKLLIYNAKTLPEGVPSRFSGSGSGTDFTLTISSLQPEDFATYYCQHHYGNPLTFGQGTKVEIK
notes: Full-length IgG, tested as HEK293 supernatant

- fold affinity decrease (His-tagged human TIGIT [4]): ~100 fold
- Kd (His-tagged human TIGIT [5]): 36 nM
- koff (His-tagged human TIGIT [5]): 0.0076 s⁻¹
- kon (His-tagged human TIGIT [5]): 210000 M⁻¹ s⁻¹
B2: reshaped TIGIT-3 antibody 3VH3 + 3VL1 (antibody, V domains shown)
VH: EVQLVESGGGLVQPGGSLRLSCAASGFTFSSYGMSWVRQAPGKGLELVATIKSDGGSTNLPDSVKGRFTISRDNSKNTLYLQMNSLRAEDTAVYYCVRGYFDYWGQGTTVTVSS
VL: DIQMTQSPSSLSASVGDRVTITCKASQDVKTAVAWYQQKPGKVPKLLIYWSSTRHTGVPSRFSGSGSGTDFTLTISSLQPEDVATYYCQQYYSTPYTFGGGTKVEIK
notes: as for B1

- EC50 [6]: 1.02 nM
- IC50 [7]: 1.17 nM
- Kd (His-tagged human TIGIT [8]): 0.58 nM
- koff (His-tagged human TIGIT [8]): 0.00019 s⁻¹
- kon (His-tagged human TIGIT [8]): 330000 M⁻¹ s⁻¹
- Kd [9]: 260 nM
- koff [9]: 0.013 s⁻¹
- kon [9]: 47000 M⁻¹ s⁻¹
- Kd (His-tagged human TIGIT [10]): 0.75 nM
- koff (His-tagged human TIGIT [10]): 0.00023 s⁻¹
- kon (His-tagged human TIGIT [10]): 300000 M⁻¹ s⁻¹
- Bottom (RLU) [11]: 46800 RLU
- EC50 [11]: 14.8 nM
- Top (RLU) [11]: 128000 RLU
- EC50 [12]: 16.7 nM
- fold EC50 on cynomolgus against human TIGIT cell line [13]: > 10 fold
B3: huTIGIT-6-4 (antibody, human IgG1, kappa, V domains shown)
VH: QVQLVQSGAEVKKPGASVKVSCKASGYTFTENAMHWVRQAPGQRLEWIGGINPNNAGTSYSQKFQGRATLTVDTSASTAYMELSSLRSEDTAVYYCTRSSYYRYDLDYWGQGTTVTVSS
VL: DIQMTQSPSSLSASVGDRVTITCQASQDIKTALAWYQQKPGKAPKLLIYSASYRYTGVPSRFSGSGSGTDFTFTISSLQPEDIATYYCHQHYTTPWTFGGGTKLEIKR
notes: Humanized IgG; also called 6VH6.M7 + 6VL1.M1
